# Experimental data published in patent publication US9422541.
# T1: Recombinant C5a produced as an N-term His-tagged fusion (HT-C5a)
# T1 chain: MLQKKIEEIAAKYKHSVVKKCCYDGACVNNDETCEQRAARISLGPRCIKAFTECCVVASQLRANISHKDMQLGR
# B1: ScpA, bacterial C5a protease from Streptococcus pyogenes (protein)
# chain: DANDLAPQAPAKTADTPATSKATIRDLNDPSQVKTLQEKAGKGAGTVVAVIDAGFDKNHEAWRLTDKTKARYQSKEDLEKAKKEHGITYGEWVNDKVAYYHDYSKDGKTAVDQEHGTHVSGILSGNAPSETKEPYRLEGAMPEAQLLLMRVEIVNGLADYARNYAQAIRDAVNLGAKVINMSFGNAALAYANLPDETKKAFDYAKSKGVSIVTSAGNDSSFGGKTRLPLADHPDYGVVGTPAAADSTLTVASYSPDKQLTETAMVKTDDQQDKEMPVLSTNRFEPNKAYDYAYANRGMKEDDFKDVKGKIALIERGDIDFKDKVANAKKAGAVGVLIYDNQDKGFPIELPNVDQMPAAFISRKDGLLLKDNPQKTITFNATPKVLPTASGTKLSRFSSWGLTADGNIKPDIAAPGQDILSSVANNKYAKLSGTSMSAPLVAGIMGLLQKQYETQYPDMTPSERLDLAKKVLMSSATALYDEDEKAYFSPRQQGAGAVDAKKASAATMYVTDKDNTSSKVHLNNVSDKFEVTVTVHNKSDKPQELYYQATVQTDKVDGKHFALAPKVLYEASWQKITIPANSSKQVTVPIDASRFSKDLLAQMKNGYFLEGFVRFKQDPTKEELMSIPYIGFRGDFGNLSAVEKPIYDSKDGSSYYHEANSDAKDQLDGDGLQFYALKNNFTALTTESNPWTIIKAVKEGVENIEDIESSEITETIFAGTFAKQDDDSHYYIHRHANGEPYAAISPNGDGNRDYVQFQGTFLRNAKNLVAEVLDKEGNVVWTSEVTEQVVKNYNNDLASTLGSTRFEKTRWDGKDKDGKVVANGTYTYRVRYTPISSGAKEQHTDFDVIVDNTTPEVATSATFSTEDRRLTLASKPKTSQPVYRERIAYTYMDEDLPTTEYISPNEDGTFTLPEEAETMEGATVPLKMSDFTYVVEDMAGNITYTPVTKLLEGHS
# Target: T1, Recombinant C5a produced as an N-term …
protein,measurement,value
B1,"C5a-ase activity (SDS-PAGE of C5a treated with ScpA; 42 nM ScpA with 37 µM HT-C5a, 30 min at 20° C.)",the ScpA cleaved C5a at a single site
same,mass loss of cleaved HT-C5a by MALDI-TOF MS,"a loss of 830 Da, consistent with the removal of seven residues from the C terminal"
